Experimental data from patent publication US20190263864A1 (GENOIMMUNE THERAPEUTICS, published 2019).

molecular target: T1, HLA-A0201 on the surface of T2 cells (human); experiment: T2 cell peptide loading, 100 µM peptide, anti-HLA-A*02:01 FITC flow cytometry
T1 construct: MHC class I molecule on TAP-deficient T2 cells
Procedure: After centrifugation at 200 g for 5 minutes for cell collection, the collected cells were washed with phosphate buffer saline (PBS) buffer twice, before incubated with anti-HLA-A*02:01 FITC monoclonal antibody at 4° C. for 30 minutes. The mean fluorescence intensity of cells was then detected and analyzed by the flow cytometry (BD FACSJazz™) and its software.

| FI (fluorescence index) | Mean fluorescence intensity | Binder |
| --- | --- | --- |
| 1.59 | 589 | FILDGSYSV [wild-type polypeptide (depicted in FILDGSYSV, SEQ ID NO:7)] |
| 2.04 | 692 | FLLDGLYSV [mutant polypeptide's variant (depicted in FLLDGLYSV, SEQ ID NO:4)] |
| 2.14 | 714 | FMLDGLYSL [mutant polypeptide's variant (depicted in FMLDGLYSL, SEQ ID NO:5)] |
| 2.34 | 759 | FMLDGLYSV [mutant polypeptide's variant (depicted in FMLDGLYSV, SEQ ID NO:3)] |
| 1.92 | 664 | FILDGLYSV [mutant polypeptide (depicted in FILDGLYSV, SEQ ID NO:1)] |
| 1.69 | 612 | FLLDGLYSL [mutant polypeptide's variant (depicted in FLLDGLYSL, SEQ ID NO:6)] |
| 1.99 | 681 | FILDGLYSL [mutant polypeptide's variant (depicted in FILDGLYSL, SEQ ID NO:2)] |
